Experimental data from PMC7877763.
pKd: −log10 of the molar value.

Legend:
[1] = biological target: GPR-foldon (foldon stabilized collagen model peptide containing a (GPP)5GPR(GPP)6 collagen sequence); assay: ELISA; ELISA-like binding assay; type I collagen from rat tail coated at 10 ug/mL on MaxiSorp plates (coating of GPR-foldon not described); His-tagged HSP47 at 1.2 to 5,000 nM in solution; detected with HRP-coupled anti-His antibody; four-parameter logistic fit
[2] = biological target: GPR-foldon (foldon stabilized collagen model peptide containing a (GPP)5GPR(GPP)6 collagen sequence); assay: BLI; biotinylated GPR-foldon immobilised on streptavidin biosensors, blocked with 10 uM biocytin; HSP47 in solution; 50 mM Tris, 150 mM NaCl, pH 7.5 (TBS); kon and koff fitted with a 1:1 Langmuir model, KD = koff/kon

pKd [1] | pKd [2] | Substance
5.82 | 4.94 | recombinant canine HSP47-R222S (from UniProt C7C419 36-418) (natural protein)
7.25 | 6.39 | recombinant wild-type canine HSP47 (from UniProt C7C419 36-418) (natural protein)
